The results in this text go back to patent publication US20220031857A1 (OSSIANIX, published 2022).

Common to all, as to assay: phage ELISA
For orientation: In an ELISA, binding on a coated surface is turned into a signal by an enzyme label.

Experiment [1] has as its target T1, recombinant human TfR1 (transferrin receptor 1) (human, UniProt P02786 89-760).
T1 construct: Bought recombinant His-tagged protein; also called hTfR1

In experiment [2] the target is T2, recombinant mouse TfR1 (transferrin receptor 1) (mouse, UniProt Q62351 89-763).
T2 construct: Bought recombinant His-tagged protein; also called mTfR1
T2 sequence (Q62351 89-763 limits assumed): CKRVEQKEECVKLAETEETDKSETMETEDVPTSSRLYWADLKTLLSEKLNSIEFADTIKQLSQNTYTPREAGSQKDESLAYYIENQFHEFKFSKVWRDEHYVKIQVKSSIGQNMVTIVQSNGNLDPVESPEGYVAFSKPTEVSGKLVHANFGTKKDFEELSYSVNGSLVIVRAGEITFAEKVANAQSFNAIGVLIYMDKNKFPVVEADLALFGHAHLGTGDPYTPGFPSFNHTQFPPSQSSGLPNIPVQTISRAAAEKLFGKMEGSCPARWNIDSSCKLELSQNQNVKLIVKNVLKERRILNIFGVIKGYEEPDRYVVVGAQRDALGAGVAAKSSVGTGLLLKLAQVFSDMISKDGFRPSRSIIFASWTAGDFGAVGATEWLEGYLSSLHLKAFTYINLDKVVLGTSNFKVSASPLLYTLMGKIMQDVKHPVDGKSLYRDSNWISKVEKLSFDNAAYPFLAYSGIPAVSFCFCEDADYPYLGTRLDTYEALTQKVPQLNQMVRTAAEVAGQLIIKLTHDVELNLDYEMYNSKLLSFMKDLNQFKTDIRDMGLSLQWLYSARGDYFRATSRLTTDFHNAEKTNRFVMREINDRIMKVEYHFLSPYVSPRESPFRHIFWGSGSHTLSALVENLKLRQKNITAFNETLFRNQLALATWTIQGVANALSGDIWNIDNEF

The next experiment addresses T3, recombinant mouse TfR2 (mouse, UniProt Q9JKX3 103-798, limits assumed).
T3 construct: Negative control protein
T3 sequence (looked up): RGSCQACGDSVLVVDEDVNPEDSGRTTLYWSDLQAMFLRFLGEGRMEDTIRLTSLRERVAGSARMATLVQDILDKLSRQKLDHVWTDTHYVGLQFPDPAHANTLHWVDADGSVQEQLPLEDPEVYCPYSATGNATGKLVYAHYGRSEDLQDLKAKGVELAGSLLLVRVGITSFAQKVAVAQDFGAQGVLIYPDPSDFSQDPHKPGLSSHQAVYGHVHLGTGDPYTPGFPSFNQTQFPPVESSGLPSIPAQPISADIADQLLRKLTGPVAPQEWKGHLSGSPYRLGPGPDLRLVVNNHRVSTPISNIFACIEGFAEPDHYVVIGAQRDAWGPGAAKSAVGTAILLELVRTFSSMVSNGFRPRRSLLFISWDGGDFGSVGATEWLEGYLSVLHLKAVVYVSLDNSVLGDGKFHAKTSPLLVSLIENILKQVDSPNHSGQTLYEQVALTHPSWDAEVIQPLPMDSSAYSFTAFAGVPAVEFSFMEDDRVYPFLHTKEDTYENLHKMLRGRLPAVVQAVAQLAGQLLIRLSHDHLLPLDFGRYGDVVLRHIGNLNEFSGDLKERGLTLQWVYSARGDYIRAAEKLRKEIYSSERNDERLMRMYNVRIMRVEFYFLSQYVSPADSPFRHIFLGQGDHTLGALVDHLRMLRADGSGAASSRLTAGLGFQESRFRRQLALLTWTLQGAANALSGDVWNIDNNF

T1 sequence (P02786 89-760 limits assumed): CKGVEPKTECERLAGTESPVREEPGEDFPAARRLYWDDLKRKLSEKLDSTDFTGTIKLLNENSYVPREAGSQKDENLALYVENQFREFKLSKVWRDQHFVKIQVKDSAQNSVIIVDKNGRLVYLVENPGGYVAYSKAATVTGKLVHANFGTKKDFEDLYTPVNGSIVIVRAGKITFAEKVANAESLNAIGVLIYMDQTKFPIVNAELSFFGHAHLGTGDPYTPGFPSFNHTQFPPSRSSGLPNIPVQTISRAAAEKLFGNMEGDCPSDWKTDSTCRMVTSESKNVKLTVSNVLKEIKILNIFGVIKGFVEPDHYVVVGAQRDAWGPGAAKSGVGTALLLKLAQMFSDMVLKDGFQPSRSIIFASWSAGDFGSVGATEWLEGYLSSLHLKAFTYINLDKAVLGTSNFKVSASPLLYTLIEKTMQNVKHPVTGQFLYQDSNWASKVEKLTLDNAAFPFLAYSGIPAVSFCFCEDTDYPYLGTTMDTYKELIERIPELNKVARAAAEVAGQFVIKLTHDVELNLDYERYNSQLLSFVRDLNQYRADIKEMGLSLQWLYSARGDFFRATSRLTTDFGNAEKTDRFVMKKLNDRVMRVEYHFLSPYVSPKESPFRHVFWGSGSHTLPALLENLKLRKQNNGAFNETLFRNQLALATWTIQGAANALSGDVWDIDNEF

B1: SEQ ID NO 26 (VNAR clone displayed on phage) (VNAR)
VNAR: ARVDQTPQTITKETGESLTINCVLRDSNCALSNLYWYRKKSGSTNEENISKGGRYVETVNSGSKSFSLRINDLTVEDSGTYRCNVDVTRCTQSQDVYGGGTAVTVNA
notes: shark VNAR domain on M13 phage; coat-protein fusion not described
For B1, the binding result in experiment [1] and in experiment [2] was “binds” each time.

B2: SEQ ID NO 27 (VNAR clone displayed on phage) (VNAR)
VNAR: ARVDQTPQTVTKETGESLTINCVLRDSNCALSNLYWYRKKSGSTNEESISLGGRYVETVNSGSKSFSLRINDLTVEDSGTYRCNVKHYVCMQSKDVYGGGTVVTVNA
notes: as for B1
B2: the binding result in experiment [1] and in experiment [2] was “binds” throughout.

B3: SEQ ID NO 18 (VNAR clone displayed on phage) (VNAR)
VNAR: ARVDQTPQTITKETGESLTINCVLRDSNCALPSTYWYRKKSGSTNEESISKGGRYVETVNSGSKSFSLRINDLTVKDSGTYRCNVQHIFQHNCYWFLYDVYGGGTAVTVNA
notes: as for B1
On to B3, for which the binding result in experiment [1] and in experiment [2] was “binds” each time.

B4: SEQ ID NO 31 (VNAR clone displayed on phage) (VNAR)
VNAR: ARVDQTPQTITKETGESLTINCVLRDSNCDLSRTYWYRKKSGSTNEESISKGGRYVETVNSGSKSFSLKINDLTVEDSGTYRCNVFLWNNYNPMDVYGGGTAVTVNA
notes: as for B1
Regarding B4, the binding result in experiment [1] and in experiment [2] was “binds” in each case.

B5: SEQ ID NO 25 (VNAR clone displayed on phage) (VNAR)
VNAR: ARVDQTPQTITKETGESLTINCVLRDSNCALSNLYWYRKKSGSTNEESISLGGRYVETVNSGSKSFSLRINDLTVEDSGTYRCNVCLLQLAGYDSPYDVYGGGTAVTVNA
notes: as for B1
Turning to B5, the binding result in experiment [1] and in experiment [2] was “binds” throughout.

B6: SEQ ID NO 30 (VNAR clone displayed on phage) (VNAR)
VNAR: ARVDQTPQTITKETGESLTINCVLRDSNCALSNLYWYRKKSGSTNEESISLGGRYVETVNSGSKSFSLRINDLTVEDSGTYRCNVCQWLQWYGGEMEDVYGGGTAVTVNA
notes: as for B1
Regarding B6, the binding result in experiment [1] and in experiment [2] was “binds” each time.

B7: SEQ ID NO 29 (VNAR clone displayed on phage) (VNAR)
VNAR: ARVDQTPQTITKETGESLTINCVLRDSNCALSNLYWYRKKSGSTNEESISLGGRYVETVNSGSKSFSLRINDLTVEDSGTYRCKVSTSVPRHYDNCRQRRHDVYGGGTAVTVNA
notes: as for B1
Take B7: the binding result in experiment [1] and in experiment [2] was “binds” throughout.

B8: SEQ ID NO 35 (VNAR clone displayed on phage) (VNAR)
VNAR: ARVDQTPQTITKETGESLTINCVLRDSNCDLSRTYWYRKKSGSTNEESISKGGRYVETVNSGSKSFSLRINDLTVEDSGTYRCNVTWLDCHQCGASDVYGGGTVVTVNA
notes: as for B1
Turning to B8, the binding result with recombinant mouse TfR2 was “no binding”; in experiment [1], “binds”; in experiment [2] it was “binds”.

B9: SEQ ID NO 14 (VNAR clone displayed on phage) (VNAR)
VNAR: ARVDQTPQTITKETGESLTINCVLRDSNCALPSTYWYRKKSGSTNEESISKGGRYVETVNSGSKSFSLRINDLTVEDSGTYRCKVTFSAFEYCYVFKVQCDVYGDGTAVTVNA
notes: as for B1
As to B9, the binding result in experiment [1] and in experiment [2] was “binds” throughout.

B10: SEQ ID NO 33 (VNAR clone displayed on phage) (VNAR)
VNAR: ARVDQTPQTITKETGESLTINCVLRDSNCDLSRTYWYRKKQGSTNEESISKGGRYVETVNSGSKSFSLRINDLTVEDSGTYRCNVALYHFTGCSRVQDVYGGGTVVTVNA
notes: as for B1
For the molecule B10, the values for the binding result (with recombinant mouse TfR2; in experiment [1]; in experiment [2]) were “no binding”, “binds” and “binds”, respectively.

B11: SEQ ID NO 36 (VNAR clone displayed on phage) (VNAR)
VNAR: ARVDQTPQTITKETGESLTINCVLRDSNCDLSRTYWYRKKSGSTNEESISKGGRYVETVNSGSKSFSLRINDLVVEDSGTYRCNVHSVSCIQRLDVYGGGTVVTVNA
notes: as for B1
On to B11, for which the values for the binding result (with recombinant mouse TfR2; in experiment [1]; in experiment [2]) were “no binding”, “binds” and “binds”, respectively.

B12: SEQ ID NO 22 (VNAR clone displayed on phage) (VNAR)
VNAR: ARVDQTPQTITKETGESLTINCVLRDSNCALSSTYWYRKKSDSTNEESISKGGRYVETVNSGSKSFSLRINDLTVEDSGTYRCKVHSFNMDVCAEFQYSDVYGDGTAVTVNA
notes: as for B1
In the case of B12, the binding result in experiment [1] and in experiment [2] was “binds” each time.

B13: SEQ ID NO 24 (VNAR clone displayed on phage) (VNAR)
VNAR: ARVDQTPQTITKETGESLTINCVLRDSNCALSNLYWYRKKSGSTNEESISKGGRYVETVNSGSKSFSLRINDLTVKDSGTYRCNVLVSMFCQLAQDVYGDGTAVTVNA
notes: as for B1
On to B13, for which the binding result in experiment [1] and in experiment [2] was “binds” throughout.

B14: SEQ ID NO 34 (VNAR clone displayed on phage) (VNAR)
VNAR: ARVDQTPQTITKETGESLTINCVLRDSNCDLSRTYWYRKKSGSTNEESISKGGRYVETVNSGSKSFSLRINDLVVEDSGTYRCNVAVFTRCHNQQDVYGGGTAVTVNA
notes: as for B1
On to B14, for which the binding result in the experiment with recombinant mouse TfR2 is “no binding”; in experiment [1], “binds”; in experiment [2] it was “binds”.

B15: SEQ ID NO 20 (VNAR clone displayed on phage) (VNAR)
VNAR: ARVDQTPQTITKETGESLTINCVLRDSNCALPSTYWYRKKSGSTNEESISKGGRYVETVNSGSKSFSLRINDLTVEDSGTYRCNVYTSYCCSVADVYGGGTAVTVNA
notes: as for B1
As to B15, the binding result in experiment [1] and in experiment [2] was “binds” in each case.

B16: SEQ ID NO 23 (VNAR clone displayed on phage) (VNAR)
VNAR: ARVDQTPQTITKETGESLTINCVLRDSNCALSNLYWYRKKSGSTNEESISKGGRYVETVNSGSKSFSLRINDLTVEDSGTYRCNVINFFAMECEYQVGDVYGDGTAVTVNA
notes: as for B1
With B16, the binding result in experiment [1] and in experiment [2] was “binds” in each case.

B17: SEQ ID NO 13 (VNAR clone displayed on phage) (VNAR)
VNAR: ARVDQTPQTITKETGESLTINCVLRDSNCALPSTYRYRKKSGSTNEESISKGGRYVETVNSGSKSFSLRINDLTVEDSGTYRCKVTMVRGRGCYQPARGQDVYGGGTAVTVNA
notes: as for B1
Turning to B17, the binding result in experiment [1] and in experiment [2] was “binds” in each case.

B18: SEQ ID NO 19 (VNAR clone displayed on phage) (VNAR)
VNAR: ARVDQTPQTITKETGESLTINCVLRDSNCALPSTYWYRKKSGSTNEESISKGGRYVETVNSGSKSFSLRINDLTVEDSGTYRCNVGWSTQYYCVLPDVYGGGTAVTVNA
notes: as for B1
Consider B18, for which the binding result in experiment [1] and in experiment [2] was “binds” throughout.

B19: SEQ ID NO 37 (VNAR clone displayed on phage) (VNAR)
VNAR: ARVDQTPQTITKETGESLTINCVLRDSNCALSSTLWYRTKSGSRNEESISKGGRYVETVNSGSKSFSLRINDLTVKDSGTYRCNVQQGVVATCTSKRCDVYGGGTAVTVNA
notes: as for B1
Consider B19, for which the binding result in the experiment with recombinant mouse TfR2 is “no binding”; in experiment [1], “binds”; in experiment [2], “binds”.

B20: SEQ ID NO 17 (VNAR clone displayed on phage) (VNAR)
VNAR: ARVDQTPQTITKETGESLTINCVLRDSNCALPSTYWYRKKSGSTNEESISKGGRYVETVNSGSKSFSLRINDLTVKDSGTYRCNVARHWTQSCAYHRDVYGGGTAVTVNA
notes: as for B1
On to B20, for which the binding result in experiment [1] and in experiment [2] was “binds” in each case.

B21: SEQ ID NO 28 (VNAR clone displayed on phage) (VNAR)
VNAR: ARVDQTPQTITKETGESLTINCVLRDSNCALSNLYWYRKKSGSTNEESISLGGRYVETVNSGSKSFSLRINDLTVKDSGTYRCNVFSFSCQLLFDVYGGGTAVTVNA
notes: as for B1
In the case of B21, the binding result in experiment [1] and in experiment [2] was “binds” throughout.

B22: SEQ ID NO 15 (VNAR clone displayed on phage) (VNAR)
VNAR: ARVDQTPQTITKETGESLTINCVLRDSNCALPSTYWYCKKSGSTNEESISKGGRYVETVNSGSKSFSLRINDLTVKDSGTYRCKVHVRAQSLCCQCWYGDVYGDGTAVTVNA
notes: as for B1
B22: the binding result in experiment [1] and in experiment [2] was “binds” in each case.

B23: SEQ ID NO 21 (VNAR clone displayed on phage) (VNAR)
VNAR: ARVDQTPQTITKETGESLTINCVLRDSNCALSSTYWYRKKSGSTNEESISKGGRYVETVNSGSKSFSLRINDLTVEDSGTYRCKVLTSQSQGGCVRVLYSDVYGDGTAVTVNA
notes: as for B1
As for B23, the binding result in experiment [1] and in experiment [2] was “binds” in each case.

B24: SEQ ID NO 32 (VNAR clone displayed on phage) (VNAR)
VNAR: ARVDQTPQTITKETGESLTINCVLRDSNCALSNLYWYRKKSGSRNEESISKGGRYVETVNSGSKSFSLKINDLTVEDSGTYRCKVFGMRTHCQWVIYRITDVYGGGTAVTVNA
notes: as for B1
B24: the results for the binding result (with recombinant mouse TfR2; in experiment [1]; in experiment [2]) were “no binding”, “binds” and “binds”, respectively.
